Results reported in patent US20240076389A1 (NATIONAL RESEARCH COUNCIL OF CANADA, published 2024).

B1: F107-8D12 (antibody, V domains shown)
VH: QVQLQQPGAELVKPGASVQLSCKASGYTFISFWINWVKQRPGQGLEWMGNIFPGSSSTNYNEKFKSKATLTVDKSSSTAYMQLSSLTSEDSAVYFCARDYYGGSPDYWGQGTTLTVSS
VL: DIVMSQSPSSLAVSAGERVTMSCKSSQSLLNTRTRKNYLAWYQQKPGQSPKLLIYWASTRESGVPDRFTGSGSGTDFTLTISSVQAEDLAVYYCKQSYNLWTFGGGTKLEIK
notes: also called F107-8D12-2; mAb 8D12
B2: F107-7H5 (antibody, V domains shown)
VH: QVQLQQPGAELVKPGASVKLSCKASGYTFTSYWINWVKQRPGQGLEWIGNIYPDSSSTNYNEKFKSKATLTVDKSSTTAYIQFSSLTSEDSAVYYCTRDTYGGSPDYWGQGTTLTVSS
VL: DIVMSQSPSSLAVSAGEKVTMSCKSSQSLLNSRTRKIYLAWYQQKPGQSPKLLIYWASTRQSGVPDRFTGSGSGTDFTLTISSVQAEDLAVYYCKQSYNLWTFGGGTKLEIK
notes: also called F107-7H5-2; mAb 7H5
B3: F107-10G1 (antibody, V domains shown)
VH: EVNLVESGGGVVKPGASLKLSCEASGFTFSNYGMSWVRQTSDKRLEWVASISGGGGRTYYLDNVKGRFIISRENAKNTLYLQMSSLKSEDTALFYCARGARASYFAMDYWGQGSSVTVSS
VL: VIVMTQSHKFMSTSVGDRVSITCKASQDVTTAVAWYQQKPGQSPKLLIYWASTRHTGVPDRFTGSGSGTDYSLTISNVQTEDLAFYYCQQHFTTPLTFGAGTKLELK
notes: also called F107-10G1-3
B4: F111-3C8 (antibody, V domains shown)
VH: QVQLQQPGAELGKPGTSVKLSCKASGYTFTSYWMHWVKRVPGQGLEWIGNINPNSTSADYNEKFKRKATLTVDKSSSTAYMQLSTLTSEDSAVYYCTRPLMGPYWYFDVWGTGTTVTVSS
VL: QIVLTQSPAIMSASPGEKVTISCSASSSVSYMYWYQQKPGSSPKPWIYRTSNLASGVPARFSGSGSGTSYSLTISSMEAEDAATYYCQQYHNYPPTFGGGTKLEIK
notes: also called F111-3C8-2
B5: F111-5E9 (antibody, V domains shown)
VH: QIQLVQSGPELKKPGETVKISCKASGYTFTKYGMNWVKQAPGKGLKWMGWINTYTGEPTYADDFKGRFAFSLETSASTAYLQINNLTTEDMVTYFCAKGGYYSNPIYPMDYWGQGTSVTVSS
VL: DIQMTQTTSSLSASLGDRVTISCRASQDINNYLNWYQQKPDGTVKLLIYYISRLHSGVPSRFSGSGSGTDYSLTISNLELEDVATYFCQQGNTLPFTFGSGTKLEIK
notes: also called F111-5E9-2; mAb 5E9
B6: NRC-sdAb001-Fc (VHH-human IgG1 Fc fusion) (Fc fusion)
chain: QVKLEESGGGLVQAGGSLRLSCTASASISSFDIMGWYRQAPGKQRELVAAITTLDIANYRDSVKGRFTISRDNAKNTVYLQMDSLKPEDTARYHCAAFQSDQNYWGQGTQVTVSS
notes: VHH fused N-terminally to human IgG1 Fc, made in HEK293 cells; also called NRC-sdAb0001-Fc; NRC-sdAb001-hIgG1; not shown: human IgG1 Fc
B7: hFC-F107-10G1 (antibody, human IgG1, kappa, V domains shown)
VH: EVNLVESGGGVVKPGASLKLSCEASGFTFSNYGMSWVRQTSDKRLEWVASISGGGGRTYYLDNVKGRFIISRENAKNTLYLQMSSLKSEDTALFYCARGARASYFAMDYWGQGSSVTVSS
VL: VIVMTQSHKFMSTSVGDRVSITCKASQDVTTAVAWYQQKPGQSPKLLIYWASTRHTGVPDRFTGSGSGTDYSLTISNVQTEDLAFYYCQQHFTTPLTFGAGTKLELKR
notes: Chimeric mAb, human IgG1 / human kappa constant regions; also called mAb F107-10G1

Columns and labels:
[1] = target: T1, AXL fragment # 3 (AXL amino acids 26-138, IgL1); test: yeast surface display of hAXL fragments (Aga2-HA-(hAXL)-MYC), whole yeast cell ELISA, signal normalised to anti-MYC
T1 chain: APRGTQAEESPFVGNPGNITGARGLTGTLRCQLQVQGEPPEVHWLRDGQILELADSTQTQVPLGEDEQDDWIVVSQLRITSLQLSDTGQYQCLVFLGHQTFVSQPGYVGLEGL
Source text: (§1) Epitope mapping. […] The YSD vector (pPNL6) was from The Pacific Northwest National Laboratory, USA.

[2] = target: T2, AXL fragment # 6 (AXL amino acids 26-226, IgL1+IgL2); test: as above
T2 chain: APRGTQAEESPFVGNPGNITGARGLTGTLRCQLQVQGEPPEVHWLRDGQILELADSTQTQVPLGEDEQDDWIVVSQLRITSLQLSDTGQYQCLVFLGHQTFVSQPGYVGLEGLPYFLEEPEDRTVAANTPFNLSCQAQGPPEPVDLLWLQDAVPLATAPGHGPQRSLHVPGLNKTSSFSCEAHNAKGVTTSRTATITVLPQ
Source text: as §1

[3] = target: T3, AXL fragment # 9 (AXL amino acids 26-429, IgL1+IgL2+FN III-1+FN III-2); test: as above
T3 construct: not shown: Yeast display carrier and tags (Aga2p, HA, MYC and any linkers)
Source text: as §1

[4] = target: T1, AXL fragment # 3 (AXL amino acids …); test: yeast surface display of hAXL fragments, whole yeast cell ELISA, signal normalised to anti-MYC
Source text: as §1

[5] = target: T4, AXL fragment # 1 (AXL amino acids 135-226, IgL2); test: yeast surface display of hAXL fragments (Aga2-HA-(hAXL)-MYC), whole yeast cell ELISA, signal normalised to anti-MYC
T4 chain: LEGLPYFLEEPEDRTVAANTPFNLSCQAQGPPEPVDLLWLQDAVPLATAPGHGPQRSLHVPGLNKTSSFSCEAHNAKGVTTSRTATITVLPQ
Source text: as §1

[6] = target: T5, AXL fragment # 7 (AXL amino acids 135-335, IgL2+FN III-1); test: as above
T5 chain: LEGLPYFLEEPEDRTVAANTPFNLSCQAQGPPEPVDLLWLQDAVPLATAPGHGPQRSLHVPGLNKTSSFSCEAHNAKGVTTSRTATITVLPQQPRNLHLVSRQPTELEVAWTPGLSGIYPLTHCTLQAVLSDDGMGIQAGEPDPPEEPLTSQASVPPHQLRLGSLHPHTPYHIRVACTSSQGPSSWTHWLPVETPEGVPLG
Source text: as §1

[7] = target: T6, cyAXL-ECD displayed on yeast; test: yeast surface display ELISA, non-denatured yeast, goat anti-human F(ab')2-HRP
T6 construct: extracellular domain; 'cy' read as cynomolgus

[8] = target: T7, huTyro3-ECD displayed on yeast (human, UniProt Q06418 41-429); test: as above
T7 construct: extracellular domain
T7 sequence (looked up): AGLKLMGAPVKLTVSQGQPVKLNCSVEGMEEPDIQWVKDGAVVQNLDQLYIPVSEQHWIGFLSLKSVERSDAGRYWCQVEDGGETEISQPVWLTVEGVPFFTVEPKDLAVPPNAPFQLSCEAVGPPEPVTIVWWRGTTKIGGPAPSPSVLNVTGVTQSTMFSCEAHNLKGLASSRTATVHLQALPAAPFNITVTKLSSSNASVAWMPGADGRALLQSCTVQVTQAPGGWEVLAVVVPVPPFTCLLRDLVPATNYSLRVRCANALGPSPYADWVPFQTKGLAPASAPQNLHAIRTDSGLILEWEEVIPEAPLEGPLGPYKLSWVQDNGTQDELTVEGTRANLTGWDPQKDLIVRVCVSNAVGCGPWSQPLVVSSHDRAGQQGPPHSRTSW

binding result [1]	binding result [2]	binding result [3]	binding result [4]	binding result [5]	binding result [6]	yeast ELISA signal normalized to myc expression level [7]	yeast ELISA signal normalized to myc expression level [8]	Binder
binds	binds	binds	–	–	–	–	–	B1
binds	binds	binds	–	–	–	–	–	B2
binds	binds	binds	–	–	–	–	–	B3
–	binds	binds	no binding	binds	binds	–	–	B4
–	binds	binds	no binding	binds	binds	–	–	B5
–	–	–	–	–	–	0.824	0.017	B6
–	–	–	–	–	–	1.14	-0.023	B7
